According to article PMC12784961, “Structure of Bacillus subtilis Ku-mediated DNA synaptic complex”:

Assays:
bsKu core (wild type) [1] = molecular target: T1, bsKu core (wild type) (Bacillus subtilis, UniProt O34859 18-244); experiment: cryo-EM; 2.74 A; two blunt ends bridged by two Ku homodimers; EMSA: 20 mM HEPES pH 7.5, 150 mM KCl, 1 mM DTT, 50 nM DNA, 30 min at 4°C, 15% native PAGE in 0.5x TBE, SYBR Gold; SEC: same buffer, protein:DNA 1:2, 1 h at 4°C, Superdex 75; details: protein: recombinant, tags: N-terminal 8xHis-MBP, cleaved with PreScission protease, chain copies: 2
T1 sequence: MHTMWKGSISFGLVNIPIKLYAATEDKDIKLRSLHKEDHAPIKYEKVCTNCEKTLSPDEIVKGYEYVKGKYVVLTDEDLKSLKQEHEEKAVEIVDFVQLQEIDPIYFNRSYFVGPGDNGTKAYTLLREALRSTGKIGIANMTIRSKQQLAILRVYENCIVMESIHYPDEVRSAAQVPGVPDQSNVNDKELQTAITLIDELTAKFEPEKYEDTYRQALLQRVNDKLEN

bsKu core (wild type) [2] = molecular target: T1, bsKu core (wild type); experiment: size-exclusion chromatography; 1:1 complex, no oligomerization; EMSA: 20 mM HEPES pH 7.5, 150 mM KCl, 1 mM DTT, 50 nM DNA, 30 min at 4°C, 15% native PAGE in 0.5x TBE, SYBR Gold; SEC: same buffer, protein:DNA 1:2, 1 h at 4°C, Superdex 75; details: protein: recombinant; tags: N-terminal 8xHis-MBP, cleaved with PreScission protease; chain copies: 2; 2-nt overhang; main text says at one end

Row | Binder | binding result (bsKu core (wild type) [1]) | binding result (bsKu core (wild type) [2])
1 | 13-bp DNA (dsDNA) DNA 1: GTACCTGTAGAAG DNA 2: CTTCTACAGGTAC | binds | –
2 | 11-bp DNA with 2-nt overhang (dsDNA) DNA 1: ACACACGCCGAGC DNA 2: GCTCGGCGTGT | – | binds
